B1: Azoarcus group I ribozyme (parent)
chain: GUGCCUUGCGCCGGGAAACCACGCAAGGGAUGGUGUCAAAUUCGGCGAAACCUAAGCGCCCGCCCGGGCGUAUGGCAACGCCGAGCCAAGCUUCGGCGCCUGCGCCGAUGAAGGUGUAGAGACUAGACGGCACCCACCUAAGGCAAACGCUAUGGUGAAGGCAUAGUCCAGGGAGUGGCGAAAGUCACACAAACCGG

Variants of: B1
Experiment: reverse-splicing fitness (ratio to wild type); higher = more active; in vitro selection; Mg2+ level not given
In short: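 An in vitro group I ribozyme library with randomized positions was T7-transcribed and gel-purified. In triplicate, 10 pmol RNA in EPPS pH 7.5 was reacted with 50 pmoles of a 30-nt RNA substrate for 1 h at 37 °C across several added MgCl2 levels (1–48 mM), then stopped with EDTA. Products were reverse transcribed from a substrate-complementary primer, PCR-amplified and sequenced (HiSeq 4000). Fitness is a variant's read proportion after selection over that before, normalised to wild type.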

Row | Variant | reverse-splicing fitness
1 | C82U A111C A120C A145U C150G C169U U176G | 0.00581
2 | C82U A111C A120C A145U C150G C169U U176A | 0.00839
3 | C82U A111C | 0.251
4 | C82U A111C A120G A145C C150A C169A | 0.00641
5 | C82U A111C A120G A145C C150A C169U | 0.00688
6 | C82U A111C A120G A145C C150A C169G | 0.00682
7 | C82U A111C A120C A145C C150A C169G | 0.00647
8 | C82U A111C A120C A145C C150A C169A | 0.00737
9 | C82U A111C A120C A145C C150A C169U | 0.00906
10 | C82U A111C A120C A145G C150G C169A U176G | 0.00708
11 | C82U A111C A120C A145G C150G C169A U176A | 0.0111
12 | C82U A111C A120C A145G C150G C169A U176C | 0.0116
13 | C82U A111C A120C A145U C150U C169A U176A | 0.0117
14 | C82U A111C A120C A145U C150U C169A U176G | 0.00665
15 | C82U A111C A120C A145U C150U C169A U176C | 0.00966
16 | C82U A111C A120G A145G C150A C169A U176G | 0.00573
17 | C82U A111C A120G A145G C150A C169A U176A | 0.0155
18 | C82U A111C A120G A145G C150A C169A U176C | 0.0218
19 | C82U A111C A120C A145U C150U C169U U176G | 0.00597
20 | C82U A111C A120C A145U C150U C169U U176C | 0.0161
21 | C82U A111C A120C A145U C150U C169U U176A | 0.0142

Row | Variant | reverse-splicing fitness
22 | C82U A111C A120C C169U U176C | 0.0145
23 | C82U A111C A120C C169U U176A | 0.018
24 | C82U A111C A120C C169U U176G | 0.00583
25 | C82U A111C A120G A145C C150A C169U U176C | 0.00704
26 | C82U A111C A120G A145C C150A C169U U176G | 0.00441
27 | C82U A111C A120G A145C C150A C169U U176A | 0.0166
28 | C82U A111C A120G A145G C150A C169A | 0.00989
29 | C82U A111C A120G A145G C150A C169G | 0.00809
30 | C82U A111C A120G A145G C150A C169U | 0.00786
31 | C82U A111C A120C C150G | 0.00785
32 | C82U A111C A120C C150U | 0.0192
33 | C82U A111C A120C C150A | 0.00985
34 | C82U A111C A120G A145C C150U | 0.00818
35 | C82U A111C A120G A145C C150G | 0.007
36 | C82U A111C A120G A145C C150A | 0.00617
37 | C82U A111C A120C A145C C150G C169U U176A | 0.0102
38 | C82U A111C A120C A145C C150G C169U U176G | 0.00551
39 | C82U A111C A120C A145C C150G C169U U176C | 0.0117
40 | C82U A111C A120C C150G C169G U176C | 0.0068
41 | C82U A111C A120C C150G C169G U176A | 0.00777
42 | C82U A111C A120C C150G C169G U176G | 0.00547

Row | Variant | reverse-splicing fitness
43 | C82U A111C A120C A145C C150A | 0.0072
44 | C82U A111C A120C A145C C150U | 0.0104
45 | C82U A111C A120C A145C C150G | 0.00813
46 | C82U A111C A120C A145C C150A U176A | 0.00991
47 | C82U A111C A120C A145C C150A U176C | 0.0116
48 | C82U A111C A120C A145C C150A U176G | 0.00522
49 | C82U A111C A120C A145G C150A C169G U176G | 0.00635
50 | C82U A111C A120C A145G C150A C169G U176C | 0.0245
51 | C82U A111C A120C A145G C150A C169G U176A | 0.015
52 | C82U A111C A120G A145C C150U C169G U176G | 0.00492
53 | C82U A111C A120G A145C C150U C169G U176A | 0.0181
54 | C82U A111C A120G A145C C150U C169G U176C | 0.0105
55 | C82U A111C A120C C150G C169A U176G | 0.00618
56 | C82U A111C A120C C150G C169A U176C | 0.00876
57 | C82U A111C A120C C150G C169A U176A | 0.00943
58 | C82U A111C A120C C150G U176G | 0.00336
59 | C82U A111C A120C C150G U176A | 0.00528
60 | C82U A111C A120C C150G U176C | 0.00787
61 | C82U A111C A120C A145U C150G C169A U176G | 0.00632
62 | C82U A111C A120C A145U C150G C169A U176C | 0.00938
63 | C82U A111C A120C A145U C150G C169A U176A | 0.00888

Row | Variant | reverse-splicing fitness
64 | C82U A111C A120C A145C C150G C169G U176G | 0.00552
65 | C82U A111C A120C A145C C150G C169G U176C | 0.00799
66 | C82U A111C A120C A145C C150G C169G U176A | 0.00861
67 | C82U A111C A120C A145U C150G C169G | 0.00628
68 | C82U A111C A120C A145U C150G C169A | 0.00863
69 | C82U A111C A120C A145U C150G C169U | 0.00844
70 | C82U A111C A120C A145C C169G | 0.00865
71 | C82U A111C A120C A145C C169U | 0.0105
72 | C82U A111C A120C A145C C169A | 0.00667
73 | C82U A111C A120C A145G C169G | 0.00841
74 | C82U A111C A120C A145G C169A | 0.0092
75 | C82U A111C A120C A145G C169U | 0.0129
76 | C82U A111C A120C A145G C169A U176A | 0.0198
77 | C82U A111C A120C A145G C169A U176G | 0.00658
78 | C82U A111C A120C A145G C169A U176C | 0.0232
79 | C82U A111C A120C A145U C150A C169U | 0.0101
80 | C82U A111C A120C A145U C150A C169A | 0.00776
81 | C82U A111C A120C A145U C150A C169G | 0.00745
82 | C82U A111C A120C A145G C150U C169A U176C | 0.014
83 | C82U A111C A120C A145G C150U C169A U176A | 0.0123
84 | C82U A111C A120C A145G C150U C169A U176G | 0.00622
